The labels stand for the following.
B1: CD5/CD33 Dual-CAR, construct S038 (other)
chain: DIQMTQSPSSLSASVGDRVTITCRASESVDNYGISFMNWFQQKPGKAPKLLIYAASNQGSGVPSRFSGSGSGTDFTLTISSLQPDDFATYYCQQSKEVPWTFGQGTKVEIKGGGGSNIQLVQSGPELKKPGETVKISCKASGYTFTNYGMNWVKQAPGKGLRWMGWINTHTGEPTYADDFKGRFAFSLETSASTAYLQINNLKNEDTATYFCTRRGYDWYFDVWGAGTTVTVSSGSTSGSGKPGSGEGSTKGDIKMTQSPSSMYASLGERVTITCKASQDINSYLSWFHHKPGKSPKTLIYRANRLVDGVPSRFSGSGSGQDYSLTISSLDYEDMGIYYCQQYDESPWTFGGGTKLEMKGGGGSQVQLVQSGAEVKKPGSSVKVSCKASGYTFTDYNMHWVRQAPGQGLEWIGYIYPYNGGTGYNQKFKSKATITADESTNTAYMELSSLRSEDTAVYYCARGRPAMDYWGQGTLVTVSSASTTTPAPRPPTPAPTIASQPLSLRPEACRPAAGGAVHTRGLDFACDIYIWAPLAGTCGVLLLSLVITLYCKRGRKKLLYIFKQPFMRPVQTTQEEDGCSCRFPEEEEGGCELRVKFSRSADAPAYKQGQNQLYNELNLGRREEYDVLDKRRGRDPEMGGKPRRKNPQEGLYNELQKDKMAEAYSEIGMKGERRRGKGHDGLYQGLSTATKDTYDALHMQALPPR
B2: CD5/CD33 Dual-CAR, construct S040 (other)
chain: DIQMTQSPSSLSASVGDRVTITCRASQDINSYLSWFQQKPGKAPKTLIYRANRLESGVPSRFSGSGSGTDYTLTISSLQYEDFGIYYCQQYDESPWTFGGGTKLEIKGGGGSQVQLVQSGAEVKKPGSSVKVSCKASGYTFTDYNMHWVRQAPGQGLEWIGYIYPYNGGTGYNQKFKSKATITADESTNTAYMELSSLRSEDTAVYYCARGRPAMDYWGQGTLVTVSSGSTSGSGKPGSGEGSTKGDIQMTQSPSSLSASVGDRVTITCRASESVDNYGISFMNWFQQKPGKAPKLLIYAASNQGSGVPSRFSGSGSGTDFTLTISSLQPDDFATYYCQQSKEVPWTFGQGTKVEIKGGGGSEIQLVQSGGGLVKPGGSVRISCAASGYTFTNYGMNWVRQAPGKGLEWMGWINTHTGEPTYADSFKGRFTFSLDDSKNTAYLQINSLRAEDTAVYFCTRRGYDWYFDVWGQGTTVTVSSASTTTPAPRPPTPAPTIASQPLSLRPEACRPAAGGAVHTRGLDFACDIYIWAPLAGTCGVLLLSLVITLYCKRGRKKLLYIFKQPFMRPVQTTQEEDGCSCRFPEEEEGGCELRVKFSRSADAPAYKQGQNQLYNELNLGRREEYDVLDKRRGRDPEMGGKPRRKNPQEGLYNELQKDKMAEAYSEIGMKGERRRGKGHDGLYQGLSTATKDTYDALHMQALPPR
B3: CD5/CD33 Dual-CAR, construct S037 (other)
chain: NIQLVQSGPELKKPGETVKISCKASGYTFTNYGMNWVKQAPGKGLRWMGWINTHTGEPTYADDFKGRFAFSLETSASTAYLQINNLKNEDTATYFCTRRGYDWYFDVWGAGTTVTVSSGGGGSDIQMTQSPSSLSASVGDRVTITCRASESVDNYGISFMNWFQQKPGKAPKLLIYAASNQGSGVPSRFSGSGSGTDFTLTISSLQPDDFATYYCQQSKEVPWTFGQGTKVEIKGSTSGSGKPGSGEGSTKGQVQLVQSGAEVKKPGSSVKVSCKASGYTFTDYNMHWVRQAPGQGLEWIGYIYPYNGGTGYNQKFKSKATITADESTNTAYMELSSLRSEDTAVYYCARGRPAMDYWGQGTLVTVSSGGGGSDIKMTQSPSSMYASLGERVTITCKASQDINSYLSWFHHKPGKSPKTLIYRANRLVDGVPSRFSGSGSGQDYSLTISSLDYEDMGIYYCQQYDESPWTFGGGTKLEMKASTTTPAPRPPTPAPTIASQPLSLRPEACRPAAGGAVHTRGLDFACDIYIWAPLAGTCGVLLLSLVITLYCKRGRKKLLYIFKQPFMRPVQTTQEEDGCSCRFPEEEEGGCELRVKFSRSADAPAYKQGQNQLYNELNLGRREEYDVLDKRRGRDPEMGGKPRRKNPQEGLYNELQKDKMAEAYSEIGMKGERRRGKGHDGLYQGLSTATKDTYDALHMQALPPR
B4: CD5/CD33 Dual-CAR, construct S039 (other)
chain: QVQLVQSGAEVKKPGSSVKVSCKASGYTFTDYNMHWVRQAPGQGLEWIGYIYPYNGGTGYNQKFKSKATITADESTNTAYMELSSLRSEDTAVYYCARGRPAMDYWGQGTLVTVSSGGGGSDIKMTQSPSSMYASLGERVTITCKASQDINSYLSWFHHKPGKSPKTLIYRANRLVDGVPSRFSGSGSGQDYSLTISSLDYEDMGIYYCQQYDESPWTFGGGTKLEMKGSTSGSGKPGSGEGSTKGNIQLVQSGPELKKPGETVKISCKASGYTFTNYGMNWVKQAPGKGLRWMGWINTHTGEPTYADDFKGRFAFSLETSASTAYLQINNLKNEDTATYFCTRRGYDWYFDVWGAGTTVTVSSGGGGSDIQMTQSPSSLSASVGDRVTITCRASESVDNYGISFMNWFQQKPGKAPKLLIYAASNQGSGVPSRFSGSGSGTDFTLTISSLQPDDFATYYCQQSKEVPWTFGQGTKVEIKASTTTPAPRPPTPAPTIASQPLSLRPEACRPAAGGAVHTRGLDFACDIYIWAPLAGTCGVLLLSLVITLYCKRGRKKLLYIFKQPFMRPVQTTQEEDGCSCRFPEEEEGGCELRVKFSRSADAPAYKQGQNQLYNELNLGRREEYDVLDKRRGRDPEMGGKPRRKNPQEGLYNELQKDKMAEAYSEIGMKGERRRGKGHDGLYQGLSTATKDTYDALHMQALPPR
B5: CD5/CD33 Dual-CAR, construct S041 (other)
chain: EIQLVQSGGGLVKPGGSVRISCAASGYTFTNYGMNWVRQAPGKGLEWMGWINTHTGEPTYADSFKGRFTFSLDDSKNTAYLQINSLRAEDTAVYFCTRRGYDWYFDVWGQGTTVTVSSGGGGSDIQMTQSPSSLSASVGDRVTITCRASESVDNYGISFMNWFQQKPGKAPKLLIYAASNQGSGVPSRFSGSGSGTDFTLTISSLQPDDFATYYCQQSKEVPWTFGQGTKVEIKGSTSGSGKPGSGEGSTKGQVQLVQSGAEVKKPGSSVKVSCKASGYTFTDYNMHWVRQAPGQGLEWIGYIYPYNGGTGYNQKFKSKATITADESTNTAYMELSSLRSEDTAVYYCARGRPAMDYWGQGTLVTVSSGGGGSDIQMTQSPSSLSASVGDRVTITCRASQDINSYLSWFQQKPGKAPKTLIYRANRLESGVPSRFSGSGSGTDYTLTISSLQYEDFGIYYCQQYDESPWTFGGGTKLEIKASTTTPAPRPPTPAPTIASQPLSLRPEACRPAAGGAVHTRGLDFACDIYIWAPLAGTCGVLLLSLVITLYCKRGRKKLLYIFKQPFMRPVQTTQEEDGCSCRFPEEEEGGCELRVKFSRSADAPAYKQGQNQLYNELNLGRREEYDVLDKRRGRDPEMGGKPRRKNPQEGLYNELQKDKMAEAYSEIGMKGERRRGKGHDGLYQGLSTATKDTYDALHMQALPPR
B6: CD5/CD33 Dual-CAR, construct S036 (other)
chain: DIKMTQSPSSMYASLGERVTITCKASQDINSYLSWFHHKPGKSPKTLIYRANRLVDGVPSRFSGSGSGQDYSLTISSLDYEDMGIYYCQQYDESPWTFGGGTKLEMKGGGGSQVQLVQSGAEVKKPGSSVKVSCKASGYTFTDYNMHWVRQAPGQGLEWIGYIYPYNGGTGYNQKFKSKATITADESTNTAYMELSSLRSEDTAVYYCARGRPAMDYWGQGTLVTVSSGSTSGSGKPGSGEGSTKGDIQMTQSPSSLSASVGDRVTITCRASESVDNYGISFMNWFQQKPGKAPKLLIYAASNQGSGVPSRFSGSGSGTDFTLTISSLQPDDFATYYCQQSKEVPWTFGQGTKVEIKGGGGSNIQLVQSGPELKKPGETVKISCKASGYTFTNYGMNWVKQAPGKGLRWMGWINTHTGEPTYADDFKGRFAFSLETSASTAYLQINNLKNEDTATYFCTRRGYDWYFDVWGAGTTVTVSSASTTTPAPRPPTPAPTIASQPLSLRPEACRPAAGGAVHTRGLDFACDIYIWAPLAGTCGVLLLSLVITLYCKRGRKKLLYIFKQPFMRPVQTTQEEDGCSCRFPEEEEGGCELRVKFSRSADAPAYKQGQNQLYNELNLGRREEYDVLDKRRGRDPEMGGKPRRKNPQEGLYNELQKDKMAEAYSEIGMKGERRRGKGHDGLYQGLSTATKDTYDALHMQALPPR
B7: CD5/CD33 Dual-CAR, construct S042 (other)
chain: DIQMTQSPSSLSASVGDRVTITCRASESVDNYGISFMNWFQQKPGKAPKLLIYAASNQGSGVPSRFSGSGSGTDFTLTISSLQPDDFATYYCQQSKEVPWTFGQGTKVEIKGGGGSEIQLVQSGGGLVKPGGSVRISCAASGYTFTNYGMNWVRQAPGKGLEWMGWINTHTGEPTYADSFKGRFTFSLDDSKNTAYLQINSLRAEDTAVYFCTRRGYDWYFDVWGQGTTVTVSSGSTSGSGKPGSGEGSTKGDIQMTQSPSSLSASVGDRVTITCRASQDINSYLSWFQQKPGKAPKTLIYRANRLESGVPSRFSGSGSGTDYTLTISSLQYEDFGIYYCQQYDESPWTFGGGTKLEIKGGGGSQVQLVQSGAEVKKPGSSVKVSCKASGYTFTDYNMHWVRQAPGQGLEWIGYIYPYNGGTGYNQKFKSKATITADESTNTAYMELSSLRSEDTAVYYCARGRPAMDYWGQGTLVTVSSASTTTPAPRPPTPAPTIASQPLSLRPEACRPAAGGAVHTRGLDFACDIYIWAPLAGTCGVLLLSLVITLYCKRGRKKLLYIFKQPFMRPVQTTQEEDGCSCRFPEEEEGGCELRVKFSRSADAPAYKQGQNQLYNELNLGRREEYDVLDKRRGRDPEMGGKPRRKNPQEGLYNELQKDKMAEAYSEIGMKGERRRGKGHDGLYQGLSTATKDTYDALHMQALPPR

This assay addresses T1, CD5 on human T cells (autologous and allogeneic Pan-T cells) and on the T-ALL cell line CCRF-CEM (human, UniProt P06127 25-495).
T1 sequence (looked up): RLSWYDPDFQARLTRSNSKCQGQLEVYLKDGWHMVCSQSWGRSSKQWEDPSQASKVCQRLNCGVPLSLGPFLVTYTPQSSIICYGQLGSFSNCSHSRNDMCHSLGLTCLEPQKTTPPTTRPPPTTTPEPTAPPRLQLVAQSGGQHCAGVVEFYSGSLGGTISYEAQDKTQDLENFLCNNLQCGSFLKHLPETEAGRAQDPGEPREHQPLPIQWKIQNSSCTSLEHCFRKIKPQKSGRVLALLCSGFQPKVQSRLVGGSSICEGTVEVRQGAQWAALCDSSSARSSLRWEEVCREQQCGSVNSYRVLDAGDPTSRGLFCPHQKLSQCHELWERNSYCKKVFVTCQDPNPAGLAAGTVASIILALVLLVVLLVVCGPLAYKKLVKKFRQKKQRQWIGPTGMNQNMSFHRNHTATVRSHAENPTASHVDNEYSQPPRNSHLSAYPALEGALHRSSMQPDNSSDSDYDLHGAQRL
The experiment in a line: cell-based or functional assay.
As to B1, the “elimination of CCRF-CEM cells after 18 hours (luciferase-based killing assay)” value (shortened to “elimination of CCRF-CEM cells”) is about 100%.

Regarding B2, the “elimination of CCRF-CEM cells” value was about 100%.

On to B3, for which the “elimination of CCRF-CEM cells” value was about 100%.

For B4, the “elimination of CCRF-CEM cells” value is about 100%.

Take B5: the “elimination of CCRF-CEM cells” value was about 100%.

Turning to B6, the “elimination of CCRF-CEM cells” value is about 100%.

With B7, the “elimination of CCRF-CEM cells” value is about 100%.
